Paper PMC12063518, “IAT4, a New Indolamine N‐Acetyltransferase in Saccharomyces cerevisiae Involved in Melatonin Biosynthesis” (Journal of Pineal Research, 2025)

Tests used:
Test in all cases: purified protein
[1] = substrate: COc1ccc2[nH]cc(CCN)c2c1; type: biochemical, Saccharomyces cerevisiae; details: 0.2 mM acetyl-CoA, pH 8.8, 37 °C, 15 min
[2] = substrate: NCCc1c[nH]c2ccc(O)cc12; type: biochemical, Saccharomyces cerevisiae; details: 0.2 mM acetyl-CoA, pH 8.8, 37 °C
[3] = substrate: NCCc1c[nH]c2ccccc12; type: biochemical, Saccharomyces cerevisiae; details: 0.2 mM acetyl-CoA, pH 8.8, 37 °C, 15 min
[4] = substrate: NCCc1c[nH]c2ccc(O)cc12; details: 0.2 mM acetyl-CoA, pH 8.8, 37 °C, 15 min enzymatic assay as Iat4, fit R2 = 0.825

B1: Iat4 (Saccharomyces cerevisiae S288C) (protein)
chain: MSFENKLPTPLENNDAKGHMVCTLNKTTDARRAAETLSIAFSNSPAFHFICKKILNIPLAEKVPTRTITTDIISPFLDSPYGEISEVNTFDAVAVWSLPPHVPKARSNDAKFNKDFIDDLNARVKQVIPNGINYYYLFCIGKNLNEKGIRGSVRTIFEEYKRRADEENCAIVLEAIAEHAKSVYEYFGFRNYMTFKYGECEVDSNGNCDPNGEGFTAYLMIYHKDGNKVLKE
notes: GST fusion from pGEX-5X-1, E. coli Rosetta (DE3), glutathione Sepharose; native protein 232 aa
Which results are given for B1?
Km [1]: 353 µM; Km ([2]; 15 min): 0.93 mM; Km [3]: 356 µM

B2: Hpa2 (Saccharomyces cerevisiae S288C) (protein)
chain: MSNTSEDNITVRFVTENDKEGWQRLWKSYQDFYEVSFPDDLDDFNFGRFLDPNIKMWAAVAVESSSEKIIGMINFFNHMTTWDFKDKIYINDLYVDENSRVKGAGGKLIQFVYDEADKLGTPSVYWCTDESNHRAQLLYVKVGYKAPKILYKRKGY
notes: same enzymatic assay as Iat4
Which Km ([2]; 15 min enzymatic assay as Iat4, unit not given, mM from the preceding sentence) does the source give for B2 here?
The Km was 6.82 ± 1.62 mM.

B3: Paa1 (Saccharomyces cerevisiae S288C) (protein)
chain: MASSSSTLPLHMYIRPLIIEDLKQILNLESQGFPPNERASEEIISFRLINCPELCSGLFIREIEGKEVKKETLIGHIMGTKIPHEYITIESMGKLQVESSNHIGIHSVVIKPEYQKKNLATLLLTDYIQKLSNQEIGNKIVLIAHEPLIPFYERVGFKIIAENTNVAKDKNFAEQKWIDMERELIKEEYDN
B3 was tested. Which Km [4] did it give?
The Km was 4250 ± 1460 µM.
